Biological target: GFP-pNLRC3-8xHis (Sus scrofa (pig), UniProt A0A287AW79 1-1066)
Experiment: MST

B1: HSV120 dsDNA (unlabelled) (dsDNA)
DNA 1: TAAGACACGATGCGATAAAATCTGTTTGTAAAATTTATTAAGGGTACAAATGCCCTAGCTAGACACGATGCGATAAAATCTGTTTGTAAAATTTATTAAGGGTACAAATTGCCCTAGC
DNA 2: GCTAGGGCAATTTGTACCCTTAATAAATTTTACAAACAGATTTTATCGCATCGTGTCTAGCTAGGGCATTTGTACCCTTAATAAATTTTACAAACAGATTTTATCGCATCGTGTCTTA
Kd: 10.1 µM

From article PMC11544074
